Measurements taken from the supplement of paper PMC9112550, “Optimization of the antimicrobial peptide Bac7 by deep mutational scanning” (BMC Biology, 2022).

Test system: Escherichia coli TOP10
Assay: shrunken log2 fold change of peptide-encoding DNA abundance (4.5 h post-induction vs induction); higher = less antimicrobial activity (less host growth inhibition)
Conditions: time post-induction: 4.5 h; library: site-saturation at positions 5, 18, 19, 20
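Also: peptides expressed intracellularly from a pBAD plasmid library in pooled LB shake-flask culture, induced with 0.3% L-arabinose, DNA abundance read by NGS, three biological replicates, DESeq2 with apeglm shrinkage.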

Row | Sequence | shrunken log2 fold change
1 | RRIRRRPPRLPRPRPRPASRPRP | 0.202
2 | RRIRCRPPRLPRPRPRPPCHPRP | 0.3
3 | RRIRGRPPRLPRPRPRPKWTPRP | 0.392
4 | RRIRVRPPRLPRPRPRPFYIPRP | -0.457
5 | RRIRPRPPRLPRPRPRPLEPPRP | 0.0434
6 | RRIRCRPPRLPRPRPRPRTPPRP | 0.571
7 | RRIRERPPRLPRPRPRPFVQPRP | -0.386
8 | RRIRLRPPRLPRPRPRPACYPRP | -0.202
9 | RRIRPRPPRLPRPRPRPWRNPRP | 0.0809
10 | RRIRHRPPRLPRPRPRPWQSPRP | -0.0359
11 | RRIRARPPRLPRPRPRPWMYPRP | -0.794
12 | RRIRVRPPRLPRPRPRPAFAPRP | 0.666
13 | RRIRNRPPRLPRPRPRPAATPRP | 0.285
14 | RRIRNRPPRLPRPRPRPDMLPRP | -0.116
15 | RRIRVRPPRLPRPRPRPKIPPRP | 0.0285
16 | RRIRCRPPRLPRPRPRPVRIPRP | -0.108
17 | RRIRSRPPRLPRPRPRPDMVPRP | -0.00858
18 | RRIRMRPPRLPRPRPRPNHTPRP | -0.213
19 | RRIRSRPPRLPRPRPRPTFPPRP | 0.0566
20 | RRIRARPPRLPRPRPRPDFPPRP | 0.102

Row | Sequence | shrunken log2 fold change
21 | RRIRWRPPRLPRPRPRPLPEPRP | 0.265
22 | RRIRYRPPRLPRPRPRPYPNPRP | -0.36
23 | RRIRFRPPRLPRPRPRPNDQPRP | -0.0705
24 | RRIRWRPPRLPRPRPRPHVSPRP | -0.0109
25 | RRIRKRPPRLPRPRPRPNKFPRP | -0.0338
26 | RRIRWRPPRLPRPRPRPPRDPRP | 0.661
27 | RRIRFRPPRLPRPRPRPHTYPRP | -0.554
28 | RRIRVRPPRLPRPRPRPVVCPRP | 0.251
29 | RRIRGRPPRLPRPRPRPLEGPRP | 0.0436
30 | RRIRERPPRLPRPRPRPNWWPRP | 0.196
31 | RRIRTRPPRLPRPRPRPGIMPRP | -0.452
32 | RRIRHRPPRLPRPRPRPAWSPRP | -0.0185
33 | RRIRGRPPRLPRPRPRPVLRPRP | 0.656
34 | RRIRARPPRLPRPRPRPLPSPRP | 0.353
35 | RRIRIRPPRLPRPRPRPPAAPRP | 0.458
36 | RRIRLRPPRLPRPRPRPESRPRP | 0.0418
37 | RRIRFRPPRLPRPRPRPMQRPRP | 0.226
38 | RRIRFRPPRLPRPRPRPKVFPRP | 0.0358
39 | RRIRGRPPRLPRPRPRPDSLPRP | -0.0456
40 | RRIRGRPPRLPRPRPRPAWPPRP | 0.892

Row | Sequence | shrunken log2 fold change
41 | RRIRPRPPRLPRPRPRPEISPRP | -0.00759
42 | RRIRVRPPRLPRPRPRPVHQPRP | 0.241
43 | RRIRSRPPRLPRPRPRPSARPRP | 0.299
44 | RRIRRRPPRLPRPRPRPCCTPRP | -0.0151
45 | RRIRQRPPRLPRPRPRPTTHPRP | 0.00963
46 | RRIRKRPPRLPRPRPRPHLQPRP | 0.224
47 | RRIRPRPPRLPRPRPRPVMWPRP | 0.385
48 | RRIRARPPRLPRPRPRPWYPPRP | -0.11
49 | RRIRYRPPRLPRPRPRPVNNPRP | -1.68
50 | RRIRIRPPRLPRPRPRPQAVPRP | -0.0119
51 | RRIRERPPRLPRPRPRPVAAPRP | 0.247
52 | RRIRIRPPRLPRPRPRPAEDPRP | -0.0521
53 | RRIRNRPPRLPRPRPRPCCVPRP | -0.667
54 | RRIRIRPPRLPRPRPRPCSGPRP | -0.852
55 | RRIRKRPPRLPRPRPRPEACPRP | 0.0762
56 | RRIRKRPPRLPRPRPRPFPLPRP | 0.289
57 | RRIRKRPPRLPRPRPRPYTLPRP | 0.0187
58 | RRIRLRPPRLPRPRPRPIIHPRP | -0.186
59 | RRIRDRPPRLPRPRPRPIMRPRP | 0.225
60 | RRIRARPPRLPRPRPRPWMNPRP | -0.121
